Laboratory results published in IntAct's records for PubMed 33727702.

B1: Interferon-induced helicase C domain-containing protein 1 (Homo sapiens), Q9BYX4 (parent)
chain: MSNGYSTDENFRYLISCFRARVKMYIQVEPVLDYLTFLPAEVKEQIQRTVATSGNMQAVELLLSTLEKGVWHLGWTREFVEALRRTGSPLAARYMNPELTDLPSPSFENAHDEYLQLLNLLQPTLVDKLLVRDVLDKCMEEELLTIEDRNRIAAAENNGNESGVRELLKRIVQKENWFSAFLNVLRQTGNNELVQELTGSDCSESNAEIENLSQVDGPQVEEQLLSTTVQPNLEKEVWGMENNSSESSFADSSVVSESDTSLAEGSVSCLDESLGHNSNMGSDSGTMGSDSDEENVAARASPEPELQLRPYQMEVAQPALEGKNIIICLPTGSGKTRVAVYIAKDHLDKKKKASEPGKVIVLVNKVLLVEQLFRKEFQPFLKKWYRVIGLSGDTQLKISFPEVVKSCDIIISTAQILENSLLNLENGEDAGVQLSDFSLIIIDECHHTNKEAVYNNIMRHYLMQKLKNNRLKKENKPVIPLPQILGLTASPGVGGATKQAKAEEHILKLCANLDAFTIKTVKENLDQLKNQIQEPCKKFAIADATREDPFKEKLLEIMTRIQTYCQMSPMSDFGTQPYEQWAIQMEKKAAKEGNRKERVCAEHLRKYNEALQINDTIRMIDAYTHLETFYNEEKDKKFAVIEDDSDEGGDDEYCDGDEDEDDLKKPLKLDETDRFLMTLFFENNKMLKRLAENPEYENEKLTKLRNTIMEQYTRTEESARGIIFTKTRQSAYALSQWITENEKFAEVGVKAHHLIGAGHSSEFKPMTQNEQKEVISKFRTGKINLLIATTVAEEGLDIKECNIVIRYGLVTNEIAMVQARGRARADESTYVLVAHSGSGVIEHETVNDFREKMMYKAIHCVQNMKPEEYAHKILELQMQSIMEKKMKTKRNIAKHYKNNPSLITFLCKNCSVLACSGEDIHVIEKMHHVNMTPEFKELYIVRENKALQKKCADYQINGEIICKCGQAWGTMMVHKGLDLPCLKIRNFVVVFKNNSTKKQYKKWVELPITFPNLDYSECCLFSDED
B2: Interferon-induced helicase C domain-containing protein 1 (Homo sapiens), Q9BYX4 (parent)
chain: B1 chain
partner: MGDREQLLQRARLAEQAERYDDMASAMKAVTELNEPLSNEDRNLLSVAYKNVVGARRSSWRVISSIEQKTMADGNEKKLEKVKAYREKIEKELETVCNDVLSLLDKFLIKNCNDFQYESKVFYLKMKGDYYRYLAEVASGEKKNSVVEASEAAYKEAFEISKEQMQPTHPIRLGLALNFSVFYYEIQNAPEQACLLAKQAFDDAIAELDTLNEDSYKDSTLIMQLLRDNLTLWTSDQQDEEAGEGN

Variants of: B1
Conditions: with isg15_human ISG15, P05161
Sequence of isg15_human ISG15, P05161 (P05161 whole entry): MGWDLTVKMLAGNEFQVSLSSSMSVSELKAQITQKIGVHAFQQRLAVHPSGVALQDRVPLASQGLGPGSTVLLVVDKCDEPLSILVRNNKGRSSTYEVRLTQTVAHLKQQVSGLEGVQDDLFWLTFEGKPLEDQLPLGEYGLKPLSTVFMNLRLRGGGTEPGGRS

Variant | effect of a mutation on the interaction
K137R | with no effect
K235R | increasing interaction strength
K128R | with no effect
K23R;K43R | disrupting interaction strength
K68R | decreasing interaction strength
K169R | with no effect
K23R | decreasing interaction strength
K43R | decreasing interaction strength
K174R | with no effect

Variants of: B2
Conditions: with 1433f_human YWHAH

Variant | effect of a mutation on the interaction
K23R;K43R | with no effect
K68R | with no effect
